Data taken from US20030008291A1 (RIKEN, published 2003).

How the values were obtained:
UvrA [1] = molecular target: T1, UvrA; test: SPR (BIAcore), His-tagged β domain immobilised on Ni-NTA sensor chip, UvrA injected, with ATP (+ ATP)
T1 construct: UvrA was the analyte in the BIAcore experiment

UvrA [2] = molecular target: T1, UvrA; test: SPR (BIAcore), His-tagged β domain immobilised on Ni-NTA sensor chip, UvrA injected, without ATP (- ATP)

Kd (UvrA [1]): 400 nM | koff (UvrA [1]): 0.06 s⁻¹ | kon (UvrA [1]): 150000 M⁻¹ s⁻¹ | Kd (UvrA [2]): 2600 nM | koff (UvrA [2]): 0.52 s⁻¹ | kon (UvrA [2]): 200000 M⁻¹ s⁻¹
B1: UvrB-β (enzyme)
chain: RNLVVERGKPYPREVLLERLLELGYQRNDIDLSPGRFRAKGEVLEIFPAYETEPIRVELFGDEVERISQVHPVTGERLRELPGFVLFPA
